Patent US20050158818A1, “Cephalosporin C acylases” (ANTIBIOTICOS S.p.A., priority 2004, published 2005)

Columns and labels:
[1] = Acylase kinetics, hydrolysis of glutaryl 7-ACA (7-ACA determined at 415 nm with p-dimethylaminobenzaldehyde); assay type: biochemical; details: glutaryl-7ACA as the substrate; after HiTrap Chelating purification
Method: Kinetics parameters of the mutants and HisVAC acylase were determined measuring the hydrolysis of cephalosporin C or glutaryl 7-ACA in 0.1 M phosphate buffer solution, pH 8.0 at 37° C. (then converted in units at 25° C.). The amount of 7-ACA is determined spectrophotometrically, using a standard curve, measuring the yellow intensity at 415 nm (Schiff base), resulting upon reaction with p-dimethylaminobenzaldehyde, using modified Bulasingham method (Biochem. Biophys. Acta 276, 250, 1972).
One acylase unit is the amount of enzyme (in solution or immobilized) which, under the assay conditions, produces one micromole of 7-ACA/minute.

[2] = Stability of the enzyme (pH, temperature); assay type: physicochemical; details: 120 min incubation at pH ranging from 5 to 9
Method: (§1) Purified HisVAC is stable after 120 min incubation at pH ranging from 5 to 9. Enzymatic activity increases as a function of the pH of the reaction solution, in the range 5-10, reaching the highest value at 40° C. after 30 minutes reaction.

[3] = Conversion of cephalosporin C to 7-ACA with acylase in solution (HPLC); assay type: biochemical; details: 2.27 g/l cephalosporin C, 167.2 total units
Method: 0.053 g cephalosporin C, dihydrate sodium salt (86% purity) is dissolved in 20 ml of 100 mM potassium phosphate buffer, pH 8 (2.27 g/l, assuming a 100% purity) and added to 6.4 ml purified acylase (167.2 total units). The mixture is incubated at 20° C., under stirring, keeping the pH at 8 by addition of diluted sodium hydroxide.

[4] = Dependence of enzymatic activity on pH and temperature; assay type: biochemical; details: after 30 minutes reaction
Method: as §1

B1: wild-type: Designed cephalosporin C acylase based on Pseudomonas N176 acylase, Phe at 270, C-terminal LEHHHHHH tag (Seq. ID #1) (protein)
chain: MTMAANTDRAVLQAALPPLSGSLPIPGLSASVRVRRDAWGIPHIKASGEADAYRALGFVHSQDRLFQMELTRRKALGRAAEWLGAEAAEADILVRRLGMEKVCRRDFEALGVEAKDMLRAYVAGVNAFLASGAPLPVEYGLLGAEPEPWEPWHSIAVMRRLGLLMGSVWFKLWRMLALPVVGAANALKLRYDDGGRDLLCIPPGAEADRLEADLATLRPAVDALLKAMGGDASDAAGGGSNNWAVAPGRTATGRPILAGDPHRVFEIPGFYAQHHLACDRFDMIGLTVPGVPGFPHFAHNGKVAYCVTHAFMDIHDLYLEQFAGEGRTARFGNDFEPVAWSRDRIAVRGGADREFDIVETRHGPVIAGDPRDGAALTLRSVQFAETDLSFDCLTRMPGASTVAQLYDATRGWGLIDHNLVAGDVAGSIGHLVRARVPSRPRENGWLPVPGWSGEHEWRGWIPHEAMPRVIDPPGGIIVTANNRVVADDHPDYLCTDCHPPYRAERIMKRLVANPAFAVDDAAAIHADTLSPHVGLLRRRLEALGARDDSAAEGLRQMLVAWDGRMDAASEVASAYNAFRRALTRLVTDRSGLEQAISHPFAAVAPGVSPQGQVWWAVPTLLRDDDAGMLKGWSWDQALSEALSVASQNLTGRSWGEEHRPRFTHPLATQFPAWAGLLNPASRPIGGDGDTVLANGLVPSAGPQATYGALSRYVFDVGNWDNSRWVVFHGASGHPASAHYADQNAPWSDCAMVPMLYSWDRIAAEAVTSQELVPALEHHHHHH
modifications: C-terminal LEHHHHHH tag; Pseudomonas
- Specific activity of purified enzyme [1]: 6.5 U/mg proteins
- Stability to pH [2]: stable
- Maximum conversion to 7-ACA ([3]; 100 mM potassium phosphate pH 8, 20° C., HPLC): 92.8%
- Time to maximum conversion to 7-ACA ([3]; pH 8, 20° C.): 150 min
- Temperature of highest enzymatic activity [4]: 40 °C
